# Results: article PMC3616104, “Structural and Phylogenetic Studies with MjTX-I Reveal a Multi-Oligomeric Toxin – a Novel Feature in Lys49-PLA2s Protein Class” (PLoS ONE, 2013)
# B1: MjTX-I (myotoxin-I) from Bothrops moojeni venom (natural protein)
# chain: SLVELGKMILQETGKNPVTSYGAYGCNCGVLGRGKPKDATDRCCYVHKCCYKKLTDCNPKKDRYSYSWKDKTIVCGENNSCLKELCECDKAVAICLRENLDTYNKKYKNNYLKPFCKKADPC
# notes: Myotoxin-I (MjTX-I), Lys49-phospholipase A2 homologue from Bothrops moojeni venom, NCBI GI 17368325; about 14 kDa per monomer; also called Lys49-PLA2
# Columns and labels:
# [1] = molecular target: the molecule itself; assay: dynamic light scattering; MjTX-I 1.5 mg/ml, 18 °C, 20 mM Tris-HCl pH 8.0
# [2] = molecular target: the molecule itself; assay: dynamic light scattering; MjTX-I 1.5 mg/ml, 18 °C, 0.5, 2.0 and 10.0 mM Tris-HCl pH 8.0, two hours after addition of the buffer
protein,measurement,setting,value
B1,stoichiometry N,[1],4
same,stoichiometry N,[2],2
